The text below walks through data of patent publication US20220242939A1 (BIOARCTIC, published 2022).

In experiment [1] the target is T1, His-tagged recombinant full-length ApoE4, 10xHIS-ApoE4(1-299) (human, UniProt P02649 19-317).
T1 construct: also called ApoE4-FL-HIS
Description: direct ELISA. (An ELISA detects its analyte on a solid surface through an enzyme-linked reagent.)

The target of experiment [2] is T2, L198 N-terminal neo-epitope peptide LAGQPLQE-Acp-C (SEQ ID NO:54) conjugated to BSA (human, not fully specified (residue 10); printed as LAGQPLQE-Acp-C; also: C-terminal Cys conjugated to BSA carrier).
T2 construct: BSA carrier
T2 peptide: LAGQPLQE[Ahx]C
The experiment in a line: direct ELISA after limiting dilution.

In experiment [3] the target is T3, recombinant C-terminal ApoE fragment L198-HIS (ApoE-L198-H299-10xHIS) (human, UniProt P02649 216-317).
T3 construct: also called L198-HIS fragment
T3 sequence (P02649 other isoform, or with tags, fused parts or gaps limits assumed): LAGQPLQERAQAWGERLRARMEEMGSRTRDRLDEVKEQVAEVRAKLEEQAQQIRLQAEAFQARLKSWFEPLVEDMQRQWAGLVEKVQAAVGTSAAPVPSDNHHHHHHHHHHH
The experiment in a line: direct ELISA, L198-HIS coated at 0.1 µM. The method, then: (§1) Selectivity evaluation of purified monoclonal antibodies by direct ELISA: The direct ELISA described below was used to evaluate the binding selectivity of the purified monoclonal antibodies produced in Example 14.
(§2) The screening was performed according to standard ELISA protocols. Briefly, 1 μg/ml solutions of BSA-conjugated neo-epitope peptides and negative control peptide, and 0.1 μM recombinant C-terminal ApoE fragment and full-length ApoE (Abcam, cat. no. ab50243) were prepared by dilution in PBS. 50 μl/well were added to an ELISA half-area 96 well microtiter plate, and the plate was sealed with adhesive sealer and incubated over night at 4° C. After discarding the solution, the plates were blocked with 150 μl/well of protein-free blocking solution (Pierce) for 1 h at room temperature with shake (600-900 rpm). The plates were washed four times with washing buffer containing 0.28 mM NaH₂PO₄, 2.5 mM Na₂HPO₄, 150 mM NaCl, 0.1% TWEEN®-20 and 0.0075% Kathon CG. Purified monoclonal antibodies of interest were 3-fold serially diluted with a starting dilution at 3 μg/ml (mixed 1:2 with dilution buffer (PBS with 0.1% BSA and 0.05% TWEEN®-20)). An anti-ApoE C-terminal antibody was used as a reference antibody (ApoE E-8 mouse monoclonal, Santa Cruz Biotechnology, cat. no. sc-393302). 50 μl/well were added into the ELISA plates and incubated for 2 h at room temperature with shake (600-900 rpm). The plates were washed four times as described previously. […] After another wash (as described previously), 50 μl/well of K-Blue® aqueous substrate (Neogen) were added, and the reaction was stopped after 5-15 min with 50 μl/well of 0.5 M […]. The optical density at 450 nm was read using an ELISA reader (Tecan).

The target of experiment [4] is T4, L198 N-terminal neo-epitope peptide LAGQPL-Acp-C (SEQ ID NO:52) conjugated to BSA (human, not fully specified (residue 8); printed as LAGQPL-Acp-C; also: C-terminal Cys conjugated to BSA carrier).
T4 construct: BSA carrier; also called L198-BSA peptide
T4 peptide: LAGQPL[Ahx]C
The experiment in a line: direct ELISA, L198-BSA peptide coated at 1 µg/ml. As for the experimental part: as §1, §2

Experiment [5] has as its target T5, full-length ApoE in human brain extract from Alzheimer's disease patients (human, UniProt P02649 19-317).
T5 construct: mature; Endogenous protein on Western blot or in solution (IP); also called ApoE full-length protein
The experiment in a line: Western blot of AD brain RIPA 2% SDS extract; monoclonal antibody at 2 ug/ml as primary antibody.

The target of experiment [6] is T6, G200 N-terminal neo-epitope peptide GQPLQE-Acp-C (SEQ ID NO:50) conjugated to BSA (human, not fully specified (residue 8); printed as GQPLQE-Acp-C; also: C-terminal Cys conjugated to BSA carrier).
T6 construct: also called G200-BSA peptide; G200-peptide
T6 peptide: GQPLQE[Ahx]C
Description: direct ELISA; proteins coated at 0.1 uM, BSA peptides at 1 ug/ml; antibody in 3-fold dilutions from 3000 ng/ml; blank reduced OD 450 nm. The method, then:
as §1, §2

The target in experiment [7] is T7, recombinant full-length ApoE4 (aa 1-299; SEQ ID NO:45; Abcam cat. no. ab50243) (human, UniProt P02649 19-317).
T7 construct: Bought protein; also called recombinant ApoE4 full-length protein
T7 sequence (P02649 19-317 C130R limits assumed): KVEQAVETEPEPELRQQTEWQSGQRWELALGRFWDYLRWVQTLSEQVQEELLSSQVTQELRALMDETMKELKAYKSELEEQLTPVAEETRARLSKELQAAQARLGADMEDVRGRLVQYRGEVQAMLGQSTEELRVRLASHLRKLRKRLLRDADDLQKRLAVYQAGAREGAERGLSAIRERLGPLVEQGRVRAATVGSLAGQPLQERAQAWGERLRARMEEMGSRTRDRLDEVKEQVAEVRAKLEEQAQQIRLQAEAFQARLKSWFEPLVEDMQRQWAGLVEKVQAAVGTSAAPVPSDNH
The description is as above. The method, then:
as §1, §2

Experiment [8] concerns the target T8, A199 N-terminal neo-epitope peptide AGQPLQ-Acp-C (SEQ ID NO:51) conjugated to BSA (human, not fully specified (residue 8); printed as AGQPLQ-Acp-C; also: C-terminal Cys conjugated to BSA carrier).
T8 construct: BSA carrier; also called A199-BSA peptide
T8 peptide: AGQPLQ[Ahx]C
The experiment is described as above. As for the experimental part: as §1, §2

For experiment [9], the target named is T9, negative control peptide AATVGSLAGQPLQER-Acp-C (SEQ ID NO:53) conjugated to BSA (human, not fully specified (residue 17); printed as AATVGSLAGQPLQER-Acp-C; also: C-terminal Cys conjugated to BSA carrier).
T9 construct: BSA carrier; also called 192-206 BSA-conjugated peptide
T9 peptide: AATVGSLAGQPLQER[Ahx]C
The description is as above. As for the experimental part: as §1, §2

Non-standard residues stand in square brackets, D forms with d. No end group written: not given here. Ahx = NCCCCCC(=O)O

The term EC50 denotes the concentration at which the effect is half-maximal.

T1 sequence (P02649 other isoform, or with tags, fused parts or gaps limits assumed): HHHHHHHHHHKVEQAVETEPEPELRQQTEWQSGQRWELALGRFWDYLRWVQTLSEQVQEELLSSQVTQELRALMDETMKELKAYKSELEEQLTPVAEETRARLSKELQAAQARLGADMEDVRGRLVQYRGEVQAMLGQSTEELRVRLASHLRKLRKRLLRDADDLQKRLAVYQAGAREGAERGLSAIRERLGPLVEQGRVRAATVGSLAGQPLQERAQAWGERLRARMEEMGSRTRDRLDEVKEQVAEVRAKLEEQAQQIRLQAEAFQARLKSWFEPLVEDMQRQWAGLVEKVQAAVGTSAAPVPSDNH
T5 sequence (P02649 19-317): as the sequence (P02649 19-317 C130R limits assumed) above, with R112C counted along it

B1: 6F4, monoclonal anti-L198 antibody (antibody, IgG1, V domains shown)
VH: EVNLEESGGDLVQPGRSLKLSCVASGFTFSDYWMNWVRQSPEKGLEWVAQIRLKSDNYVTHYVESLKGRFTISRDDSRSCVYLQMNNLRAEDTGIYYCTGHILLRRRYFDVWGTGTTVTVSS
VL: DIVMTQSQKFMSTSVGDRVSVTCEASQNVGTNVAWYQQKPGQSPKGLIYSASYRYSGVPDRFTGSGSGTDFTLTISTVQSEDLAEYFCHQFNTYPYTFGGGTTLEII
For B1, the binding result in experiment [1] is “no binding (tested: 3 µg/ml)”; in experiment [2], “binds”; in experiment [5], “no binding (tested: 2 ug/ml (text))”; in experiment [6], “no binding (tested: 3000 ng/ml)”; in experiment [7], “no binding (tested: 3000 ng/ml)”; in experiment [8], “no binding (tested: 3000 ng/ml)”. In addition, the binding result in experiment [9] is listed as “no binding (tested: 3000 ng/ml)”. The 50% effective concentration (EC50) in [3] amounted to 0.0185 µg/mL; in [4], 0.0135 µg/mL.
